This note sets out measurements from article PMC2583105 (The EMBO Journal, 2008).

Residues, ends and D or L forms follow the SMILES beside them.

Experiment [1] has as its target LatB-bound G-actin (rabbit skeletal muscle actin) (Oryctolagus cuniculus, UniProt P68135). Put plainly: Fluorescence anisotropy assay of RPEL^MAL:G-actin interaction. Type of experiment: binding. To be noted: ratio of Kd values from fluorescence anisotropy. (In general: Fluorescence polarisation rises when a labelled molecule tumbles more slowly, as on binding a larger partner.)

Experiment [2] has as its target FITC-conjugated RPEL1^MAL peptide, α2^AAA mutant (mouse). Put plainly: fluorescence polarisation.
In experiment [3] the target is FITC-conjugated RPEL2^MAL peptide, MAL(111–142), wild type (mouse). Put plainly: fluorescence polarisation.
Experiment [4] addresses FITC-conjugated RPEL1^MAL peptide, R81 and R82 both to alanine (mouse). Nature of the experiment: fluorescence polarisation.
Experiment [5] deals with FITC-conjugated RPEL2^MAL peptide, E130A (mouse). Put plainly: fluorescence polarisation.
The target in experiment [6] is FITC-conjugated RPEL1^MAL peptide, R81A (mouse). Put plainly: fluorescence polarisation.
Experiment [7] has as its target FITC-conjugated RPEL2^MAL peptide, P126A (mouse). Put plainly: fluorescence polarisation.
Experiment [8] addresses FITC-conjugated RPEL2^MAL peptide, P126 replaced with arginine (mouse). Nature of the experiment: fluorescence polarisation.
The target in experiment [9] is FITC-conjugated RPEL3^MAL peptide, MAL(155–186), wild type (mouse). Put plainly: fluorescence polarisation.
Experiment [10] deals with FITC-conjugated RPEL1^MAL peptide, alanine at R82 (the position of the conserved RPEL proline) (mouse). Nature of the experiment: fluorescence polarisation.
The target of experiment [11] is FITC-conjugated RPEL1^MAL peptide, MAL(67–98), wild type (mouse). Nature of the experiment: fluorescence polarisation.
For experiment [12], the target named is FITC-conjugated 'RPEL2-like' RPEL3^MAL peptide, G171/P172 replaced by E and R (mouse). Nature of the experiment: fluorescence polarisation.
Experiment [13] concerns the target FITC-conjugated RPEL1^MAL peptide, E86A (mouse). Put plainly: fluorescence polarisation.

For `CC[C@H](C)[C@H](NC(=O)[C@H](CCCCN)NC(=O)[C@H](CCCNC(=N)N)NC(=O)[C@H](CCCCN)NC(=O)[C@H](CC(C)C)NC(=O)[C@H](Cc1ccc(O)cc1)NC(=O)[C@H](CC(=O)O)NC(=O)[C@H](CCC(=O)O)NC(=O)[C@@H](NC(=O)[C@H](CCCNC(=N)N)NC(=O)[C@H](C)NC(=O)[C@H](CCCNC(=N)N)NC(=S)Nc1ccc2c(c1)C(=O)OC21c2ccc(O)cc2Oc2cc(O)ccc21)[C@@H](C)O)C(=O)N[C@@H](CCCNC(=N)N)C(=O)N[C@@H](CO)C(=O)N[C@@H](CCCNC(=N)N)C(=O)N[C@@H](C)C(=O)N[C@@H](CCC(=O)O)C(=O)N[C@@H](CCCNC(=N)N)C(=O)N[C@@H](C)C(=O)N[C@@H](CCC(=O)O)C(=O)N[C@@H](CC(C)C)C(=O)N[C@H](C(=O)N[C@@H](CCCNC(=N)N)C(=O)N[C@@H](CCSC)C(=O)N[C@@H](Cc1c[nH]cn1)C(=O)N[C@H](C(=O)N[C@@H](CC(C)C)C(=O)N[C@@H](CCC(=O)O)C(=O)N[C@@H](CCC(=O)O)C(=O)N[C@H](C(=O)N[C@@H](CO)C(=O)N[C@@H](C)C(=O)O)[C@@H](C)O)[C@@H](C)CC)C(C)C` [RPEL2 P126A] (HELM PEPTIDE1{[O=C1OC2(c3ccc(O)cc3Oc3cc(O)ccc32)c2ccc(NC(=S)[*:2])cc21].R.A.R.T.E.D.Y.L.K.R.K.I.R.S.R.A.E.R.A.E.L.V.R.M.H.I.L.E.E.T.S.A}$$$$V2.0; C-terminus assumed), in [1], the “Fold reduction of actin-binding affinity relative to the wild-type peptide” value stood at 16 fold.
Consider `CC[C@H](C)[C@H](NC(=O)CNC(=O)[C@H](CCC(N)=O)NC(=O)[C@H](CO)NC(=O)[C@@H](NC(=O)[C@H](CC(C)C)NC(=O)[C@H](CCC(=O)O)NC(=O)[C@H](CCC(=O)O)NC(=O)[C@H](CCCNC(=N)N)NC(=O)[C@@H](NC(=O)[C@H](C)NC(=O)[C@H](CCCNC(=N)N)NC(=O)[C@H](CCC(N)=O)NC(=O)[C@H](CCC(N)=O)NC(=O)[C@H](CC(C)C)NC(=O)[C@H](CCCCN)NC(=O)[C@H](CC(C)C)NC(=O)[C@H](CCC(N)=O)NC(=O)[C@H](CC(C)C)NC(=O)[C@@H](NC(=O)[C@H](CC(N)=O)NC(=O)[C@H](CCCCN)NC(=O)[C@H](CCCNC(=N)N)NC(=O)[C@H](CCC(=O)O)NC(=O)[C@H](CO)NC(=O)[C@H](CC(C)C)NC(=S)Nc1ccc2c(c1)C(=O)OC21c2ccc(O)cc2Oc2cc(O)ccc21)C(C)C)[C@@H](C)O)C(C)C)C(=O)N[C@@H](CCSC)C(=O)N1CCC[C@H]1C(=O)N1CCC[C@H]1C(=O)N[C@@H](CC(C)C)C(=O)N[C@@H](CCCCN)C(=O)N[C@@H](CO)C(=O)O` [RPEL1 R82A] (HELM PEPTIDE1{[O=C1OC2(c3ccc(O)cc3Oc3cc(O)ccc32)c2ccc(NC(=S)[*:2])cc21].L.S.E.R.K.N.V.L.Q.L.K.L.Q.Q.R.A.T.R.E.E.L.V.S.Q.G.I.M.P.P.L.K.S}$$$$V2.0; C-terminus assumed), for which the “Fold reduction of actin-binding affinity relative to the wild-type peptide” value in experiment [1] amounted to 3.5 fold.
On to “rabbit skeletal muscle G-actin bound to latrunculin B (LatB) and ATP (from UniProt P68135 1-377) (natural protein)”, for which the Kd – broadly, a measure of binding affinity in units of concentration – in experiment [2] came to 24 µM; in experiment [3] it was 1.9 µM; in experiment [4], 44.5 µM; in experiment [5] it was 1.9 µM; in [6], 17.7 µM; in [7] it was 30.8 µM. Also, the Kd in experiment [8] is 19.5 µM; in experiment [9], 28.9 µM; in experiment [10] it was 3.7 µM; in experiment [11], 1 µM; in experiment [12], 4.8 µM; in [13], 2.7 µM.
